The source of these data is paper PMC10720983.

One may read the stoichiometry N as a count of units in the complex or per binding partner.

The target of the assay is DtpM (dithiolopyrrolone methyltransferase) (Saccharothrix algeriensis). Briefly: SEC-MALS. On the technique in general: Size exclusion chromatography separates by hydrodynamic size, large species first.

“DtpM (dithiolopyrrolone methyltransferase) (enzyme)”: the stoichiometry N was determined as 2.
